Columns and labels:
GPR56^N = molecular target: T1, GPR56^N (Mus musculus, UniProt Q8K209); assay: In vitro biotinylation/proteomics pull-down from mixed glial cell lysate with mass spectrometry; conditions: peptide sequences specific for binding to GPR56^N
T1 construct: Using the soluble N-terminal fragment of GPR56 (GPR56^N); made in house
Description: To identify the ligand of GPR56 in OPCs, an in vitro biotinylation/proteomics approach was employed using single-step capture on streptavidin beads to purify the binding partner(s) of GPR56 (FIGS. 2A-2B). Proteins with more than five identified tryptic peptides in the Mass Spectrometry (MS) output from three independent experiments are listed at Table 1.
(§1) GPR56^N and GPR56^Ndel fusions proteins with either mFc or hFc tag were generated as previously described (Luo et al. Proc Natl Acad Sci USA 108, 12925-12930, 2011). BirA enzyme was used to in vitro biotinylate GPR56^N-mFc-biotag protein as previously described (De Laurenzi and Melino Mol Cell Biol 21, 148-155, 2001). Mixed glial cell lysate was incubated with biotinylated GPR56^N protein in lysis buffer [20 mM Hepes (pH 7.3), 150 mM NaCl, and 5 mM MgCl2] with protein inhibitor mixture (Roche Molecular Biochemicals) and 1% Brij 96 (Fluka). Streptavidin beads (Sigma) were used to affinity purify immunocomplexes. GPR56-associated proteins were eluted in 2×SDS loading buffer, subjected to SDS/PAGE. The whole lane was used for MS at the Taplin Biological Mass Spectrometry at Havard Medical School. MS data were searched against the mouse International Protein Index (IPI mouse 339) database using the protein identification software Mascot (v2.2.04, Matrix Sciences) (Luo et al. Proc Natl Acad Sci USA 108, 12925-12930, 2011).
as §1, with “al.,” for “al.”, “(Stacey et al., J” for “(De Laurenzi and Melino Mol Cell”, “Chem 277, 29283-29293, 2002).” for “21, 148-155, 2001).”, “(20” for “[20”, “[pH 7.3],” for “(pH 7.3),”, “MgCl2)” for “MgCl2]”

[1] = molecular target: T2, Transglutaminase 2 (Tgm2), mouse, endogenous (mixed glial cell lysate / microglia-derived) (mouse, UniProt P21981 2-686); assay: figure legend of the summary model
T2 construct: Endogenous protein captured from lysate, or present in mouse tissue; also called TG2; microglial TG2
T2 sequence (looked up): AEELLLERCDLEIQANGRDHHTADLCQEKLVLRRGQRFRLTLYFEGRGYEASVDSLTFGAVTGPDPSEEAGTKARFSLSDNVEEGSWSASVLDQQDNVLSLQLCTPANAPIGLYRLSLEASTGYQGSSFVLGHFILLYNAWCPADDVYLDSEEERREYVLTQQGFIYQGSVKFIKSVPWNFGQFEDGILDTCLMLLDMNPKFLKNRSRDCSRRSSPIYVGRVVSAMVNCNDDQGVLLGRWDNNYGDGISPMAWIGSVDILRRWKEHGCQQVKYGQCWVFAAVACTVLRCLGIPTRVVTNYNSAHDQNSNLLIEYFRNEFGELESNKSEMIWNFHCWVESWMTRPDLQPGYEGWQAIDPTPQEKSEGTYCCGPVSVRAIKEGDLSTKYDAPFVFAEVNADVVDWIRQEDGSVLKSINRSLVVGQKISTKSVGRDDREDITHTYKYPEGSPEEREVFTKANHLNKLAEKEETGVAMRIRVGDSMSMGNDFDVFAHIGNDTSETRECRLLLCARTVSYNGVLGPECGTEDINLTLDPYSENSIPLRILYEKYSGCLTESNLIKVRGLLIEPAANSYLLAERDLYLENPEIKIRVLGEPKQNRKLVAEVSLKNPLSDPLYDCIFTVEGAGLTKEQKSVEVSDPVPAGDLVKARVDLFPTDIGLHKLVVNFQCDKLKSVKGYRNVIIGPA

[2] = molecular target: T3, human recombinant Transglutaminase 2 (TG2) (human, UniProt P21980 1-687, limits assumed); assay: told in words; NTF release from HEK 293T cells expressing mouse GPR56
T3 construct: also called recombinant TG2; recombinant TGM2
T3 sequence: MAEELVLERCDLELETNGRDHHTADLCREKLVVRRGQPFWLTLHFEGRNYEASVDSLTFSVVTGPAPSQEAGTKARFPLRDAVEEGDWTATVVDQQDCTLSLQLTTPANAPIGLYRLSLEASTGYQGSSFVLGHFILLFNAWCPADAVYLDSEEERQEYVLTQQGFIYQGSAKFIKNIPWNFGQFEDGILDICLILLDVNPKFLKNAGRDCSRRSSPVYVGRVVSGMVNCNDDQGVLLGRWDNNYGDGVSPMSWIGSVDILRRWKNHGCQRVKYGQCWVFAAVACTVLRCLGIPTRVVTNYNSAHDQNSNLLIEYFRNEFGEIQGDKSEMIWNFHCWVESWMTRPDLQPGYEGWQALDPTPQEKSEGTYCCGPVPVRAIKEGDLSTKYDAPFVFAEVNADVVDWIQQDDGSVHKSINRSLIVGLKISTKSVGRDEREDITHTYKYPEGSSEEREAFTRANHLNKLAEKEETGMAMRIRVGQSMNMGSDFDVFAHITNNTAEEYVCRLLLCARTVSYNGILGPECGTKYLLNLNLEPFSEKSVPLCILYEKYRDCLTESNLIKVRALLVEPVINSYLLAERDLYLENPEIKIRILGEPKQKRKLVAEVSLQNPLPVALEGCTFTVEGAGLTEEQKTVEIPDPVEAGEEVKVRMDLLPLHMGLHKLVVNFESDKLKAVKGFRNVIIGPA
Description: HEK 293T cells were transiently transfected with mouse Gpr56 cDNA. […] The conditioned media were harvested, filtered, and concentrated as previously described. Equal volumes of the concentrated media were used for Western blot (Luo et al., PLOS One 9, e100043, 2014), while the cell pellets were used for GTP-Rho pull-down assay.

GPR56 NTF (GPR56^N) [3] = molecular target: GPR56 NTF (GPR56^N) (Mus musculus, UniProt Q8K209); conditions: between amino acids 27-160; cited from earlier work
GPR56 NTF (GPR56^N) [4] = molecular target: GPR56 NTF (GPR56^N) (Mus musculus, UniProt Q8K209, DEL93-142); conditions: aa 93-142 deleted; cited from earlier work
Chain of GPR56 NTF (GPR56^N) (Mus musculus, UniProt Q8K209, DEL93-142) (Q8K209 with tags, fused parts or gaps DEL93-142): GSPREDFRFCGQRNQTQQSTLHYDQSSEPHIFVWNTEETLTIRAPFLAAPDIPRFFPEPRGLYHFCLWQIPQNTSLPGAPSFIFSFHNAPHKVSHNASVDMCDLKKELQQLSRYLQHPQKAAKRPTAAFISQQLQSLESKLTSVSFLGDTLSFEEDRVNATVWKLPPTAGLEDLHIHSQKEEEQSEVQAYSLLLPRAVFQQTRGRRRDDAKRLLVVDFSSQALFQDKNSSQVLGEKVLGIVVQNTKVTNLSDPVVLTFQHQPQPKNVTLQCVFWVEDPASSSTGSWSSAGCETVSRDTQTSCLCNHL

B1: GPR56 (ADGRG1), mouse, on cells (oligodendrocyte precursor cells; HEK 293T cells transfected with mouse Gpr56 cDNA) (receptor, UniProt Q8K209 26-687, looked up)
chain: GSPREDFRFCGQRNQTQQSTLHYDQSSEPHIFVWNTEETLTIRAPFLAAPDIPRFFPEPRGLYHFCLYWSRHTGRLHLRYGKHDYLLSSQASRLLCFQKQEQSLKQGAPLIATSVSSWQIPQNTSLPGAPSFIFSFHNAPHKVSHNASVDMCDLKKELQQLSRYLQHPQKAAKRPTAAFISQQLQSLESKLTSVSFLGDTLSFEEDRVNATVWKLPPTAGLEDLHIHSQKEEEQSEVQAYSLLLPRAVFQQTRGRRRDDAKRLLVVDFSSQALFQDKNSSQVLGEKVLGIVVQNTKVTNLSDPVVLTFQHQPQPKNVTLQCVFWVEDPASSSTGSWSSAGCETVSRDTQTSCLCNHLTYFAVLMVSSTEVEATHKHYLTLLSYVGCVISALACVFTIAAYLCSRRKSRDYTIKVHMNLLSAVFLLDVSFLLSEPVALTGSEAACRTSAMFLHFSLLACLSWMGLEGYNLYRLVVEVFGTYVPGYLLKLSIVGWGFPVFLVTLVALVDVNNYGPIILAVRRTPERVTYPSMCWIRDSLVSYVTNLGLFSLVFLFNLAMLATMVVQILRLRPHSQNWPHVLTLLGLSLVLGLPWALVFFSFASGTFQLVILYLFSIITSFQGFLIFLWYWSMRFQAQGGPSPLKNNSDSAKLPISSGSTSSSRI
notes: whole, on cells; not used here; also called OPC GPR56; OPC-GPR56
Peptide Number (Exp1) (GPR56^N; experiment 1): 12 | Peptide Number (Exp2) (GPR56^N; experiment 2): 11 | Peptide Number (Exp3) (GPR56^N; experiment 3): 9 | binding result [1]: binds | binding result [2]: binds

B2: Col III: collagen III (gene symbol Col3a1), ligand for GPR56 in the developing cerebral cortex (protein, UniProt P08121 155-1219, looked up)
Collagen alpha-1(III) chain: QFDSYDVKSGVGGMGGYPGPAGPPGPPGPPGSSGHPGSPGSPGYQGPPGEPGQAGPAGPPGPPGALGPAGPAGKDGESGRPGRPGERGLPGPPGIKGPAGMPGFPGMKGHRGFDGRNGEKGETGAPGLKGENGLPGDNGAPGPMGPRGAPGERGRPGLPGAAGARGNDGARGSDGQPGPPGPPGTAGFPGSPGAKGEVGPAGSPGSNGSPGQRGEPGPQGHAGAQGPPGPPGNNGSPGGKGEMGPAGIPGAPGLIGARGPPGPAGTNGIPGTRGPSGEPGKNGAKGEPGARGERGEAGSPGIPGPKGEDGKDGSPGEPGANGLPGAAGERGPSGFRGPAGPNGIPGEKGPPGERGGPGPAGPRGVAGEPGRDGTPGGPGIRGMPGSPGGPGNDGKPGPPGSQGESGRPGPPGPSGPRGQPGVMGFPGPKGNDGAPGKNGERGGPGGPGLPGPAGKNGETGPQGPPGPTGPAGDKGDSGPPGPQGLQGIPGTGGPPGENGKPGEPGPKGEVGAPGAPGGKGDSGAPGERGPPGTAGIPGARGGAGPPGPEGGKGPAGPPGPPGASGSPGLQGMPGERGGPGSPGPKGEKGEPGGAGADGVPGKDGPRGPAGPIGPPGPAGQPGDKGEGGSPGLPGIAGPRGGPGERGEHGPPGPAGFPGAPGQNGEPGAKGERGAPGEKGEGGPPGPAGPTGSSGPAGPPGPQGVKGERGSPGGPGTAGFPGGRGLPGPPGNNGNPGPPGPSGAPGKDGPPGPAGNSGSPGNPGIAGPKGDAGQPGEKGPPGAQGPPGSPGPLGIAGLTGARGLAGPPGMPGPRGSPGPQGIKGESGKPGASGHNGERGPPGPQGLPGQPGTAGEPGRDGNPGSDGQPGRDGSPGGKGDRGENGSPGAPGAPGHPGPPGPVGPSGKSGDRGETGPAGPSGAPGPAGARGAPGPQGPRGDKGETGERGSNGIKGHRGFPGNPGPPGSPGAAGHQGAIGSPGPAGPRGPVGPHGPPGKDGTSGHPGPIGPPGPRGNRGERGSEGSPGHPGQPGPPGPPGAPGPCCGGGAAAIAGVGGEKSGGFSPYYG
Binding to GPR56 NTF (GPR56^N) (GPR56 NTF (GPR56^N) [3]): binds | Binding to GPR56^Ndel (GPR56 NTF (GPR56^N) [4]): abrogated Col III binding
